Results reported in the supplement of paper PMC10126150.
± gives the standard deviation of the averaged measurements.

Tested on: ATP
Assay: switch fluorescence ratio, 500 uM ATP over buffer (Cy3 cluster intensity, sum of 5 cycles each) (fold (ratio)); higher = stronger signal-on switching upon ATP binding; sequences stand for … in TCGTCGGCAGCGTCAGATGTGTATAAGAGACAGTTTTTTTTTTTTTTTTTTTTTTTTT…TC
Conditions: aptamer strand: ATP DNA aptamer (quencher-CACCTGGGGGAGTATTGCGGAGGAAGG + anchor), 100 nM annealed; ATP concentration: 500 uM
How it was run: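 The fluorescence ratio divides summed target-cycle Cy3 intensity by summed buffer-cycle Cy3 intensity for each cluster and is averaged per switch-domain sequence. Cy3-labelled switching-strand clusters on a modified Illumina MiSeq flow-cell were annealed to 100 nM quencher-labelled ATP aptamer, then imaged in selection buffer and again after 15 min with 500 uM ATP at 22 °C. Five such cycles were run, with NaOH stripping and re-annealing between them, and clusters outside 100-1000 RFU were excluded.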
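Further: ATP exposure 15 min at 22 °C before imaging.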

Row | Sequence | switch fluorescence ratio
1 | TCTGGTTGAG | 1.02 ± 0.019
2 | CTGCTAAGTA | 1.01 ± 0.013
3 | TGGGGTGGAG | 0.97 ± 0.032
4 | ATAATTGGG | 0.978 ± 0.097
5 | ACAGGGTTTC | 0.985 ± 0.015
6 | ATTTGCATGC | 1 ± 0.012
7 | TCAGATGGGG | 1.03 ± 0.021
8 | TTATTCGTTG | 0.99 ± 0.025
9 | GTCTTTTTTT | 0.96 ± 0.045
10 | AATTGCTACC | 1.07 ± 0.013
11 | GGTATTAGAT | 1.01 ± 0.049
12 | GGAACGTTCT | 0.995 ± 0.046
13 | AGAAAATTAC | 2.42 ± 2
14 | GGGGGGGTAG | 1 ± 0.021
15 | GGGGGGGTAC | 1.23 ± 0.62
16 | CAAGGGAGGG | 0.991 ± 0.047
17 | GTGGGGGGTA | 1 ± 0.031
18 | GCGACAAGAG | 1.03 ± 0.067
19 | TCAATGGTAT | 1.17 ± 0.28
20 | GTTTACGTGG | 1.01 ± 0.015
21 | TCATTTCCGG | 1.046 ± 0.0072
22 | GGGAAGGCAT | 0.986 ± 0.047
23 | CCAAGTTCTC | 0.972 ± 0.021

Row | Sequence | switch fluorescence ratio
24 | GAAATTCGAG | 1.01 ± 0.033
25 | ATGCTGATGT | 1.016 ± 0.0011
26 | GATGCTTTTT | 1.02 ± 0.018
27 | TCAGGTTTTT | 1.13 ± 0.22
28 | TTACTGCTTT | 1.02 ± 0.025
29 | GACACCAATC | 1.36 ± 0.052
30 | TGGTCAGGGG | 1.09 ± 0.056
31 | TCGGCCACAG | 1.05 ± 0.02
32 | ACCGTTGGTT | 1.02 ± 0.056
33 | ACGTTGAAGT | 1.01 ± 0.019
34 | CTGTGTCTTT | 0.995 ± 0.072
35 | GGATGGGTCG | 1.02 ± 0.083
36 | GGCCGGAGGT | 1 ± 0.011
37 | GGGTTGTGGA | 1 ± 0.029
38 | TAGACATGTT | 1 ± 0.13
39 | CGAAGCGTCA | 1.081 ± 0.0014
40 | AGTTTTATTT | 0.968 ± 0.032
41 | AATCTATAAT | 1.007 ± 0.0018
42 | ATTGGTTGTG | 0.988 ± 0.035
43 | TGGGAAGTCC | 1.001 ± 0.0074
44 | CAGGGTTGCC | 0.996 ± 0.018
45 | CTGTGGGTCC | 0.976 ± 0.034
46 | TACTTGGGC | 1.02 ± 0.021

Row | Sequence | switch fluorescence ratio
47 | TCGTTCATGG | 0.979 ± 0.039
48 | TAAACGCGGG | 1.04 ± 0.093
49 | CCCTTTTGGG | 0.997 ± 0.035
50 | TAAATGGTTT | 1.02 ± 0.023
51 | CGTTGGAAGG | 0.985 ± 0.021
52 | GAAAGAAACT | 1.63 ± 0.98
53 | AGAGGGATCT | 1.022 ± 0.0072
54 | GACTGAATAC | 3.91 ± 1.9
55 | TGATGTTACG | 0.9871 ± 0.0046
56 | AAGAGGCGGG | 1 ± 0.019
57 | GTTGTAATAG | 1.09 ± 0.031
58 | TTCACTGGGA | 0.9962 ± 0.00098
59 | AAATGATCCG | 1.08 ± 0.063
60 | ATTACCTGTT | 1.03 ± 0.047
61 | TTTTTTATTT | 0.996 ± 0.025
62 | TTACAAGATT | 1.03 ± 0.0047
63 | AGGCTCCTCG | 1.039 ± 4.4e-05
64 | AACTGACGGA | 1.14 ± 0.026
65 | CGGGAGGTA | 1.0174 ± 1.4e-06
66 | GAGGGGCTTC | 1 ± 0.016
67 | TGGTTTGAGG | 0.989 ± 0.035
68 | CAGATCTGTA | 1.0087 ± 0.00071
69 | TCGCTGCGGA | 1.01 ± 0.018

Row | Sequence | switch fluorescence ratio
70 | TATGTTAGGC | 1.018 ± 0.01
71 | GGGACATAGT | 0.9616 ± 0.0037
72 | AGAGGTTCC | 1 ± 0.058
73 | TAAGTATTGG | 0.977 ± 0.037
74 | GTATATCTGT | 1.01 ± 0.052
75 | GATTTCATCA | 0.967 ± 0.057
76 | TTGGGAGGTG | 1.05 ± 0.051
77 | GGGGTATCGC | 1.002 ± 0.0095
78 | CGTGAGCTAG | 1.03 ± 0.029
79 | AATGTTAAAT | 0.979 ± 0.02
80 | AAAAAGGTGG | 1.06 ± 0.047
81 | TTAGGTTGGG | 1.02 ± 0.056
82 | CGGTTAGACG | 0.977 ± 0.008
83 | CAGTTGGATT | 1.01 ± 0.04
84 | CGATTGTCTG | 0.958 ± 0.02
85 | TGAGGGCAAG | 1.02 ± 0.022
86 | ATGAATTAAA | 0.992 ± 0.018
87 | GGGAGGGTTC | 1.01 ± 0.083
88 | ATCCTGGGGT | 1.01 ± 0.029
89 | TCGTTGGCTT | 1 ± 0.011
90 | GTCGAGGGGA | 1.01 ± 0.035
91 | AATGTAAATA | 1.01 ± 0.018
92 | TAACGAAGGA | 1.03 ± 0.051

Row | Sequence | switch fluorescence ratio
93 | TCGTAGCAGG | 1.12 ± 0.14
94 | AATGGGCCGG | 1.013 ± 0.0076
95 | GGGTTGTTGT | 0.982 ± 0.014
96 | ATAGTTGGGA | 1.018 ± 0.0011
97 | CGAGTGAATC | 1.01 ± 0.019
98 | TAGGGGGCTT | 1.01 ± 0.018
99 | TGGTGTCGTG | 0.999 ± 0.034
100 | GGCTGAGGGA | 1.04 ± 0.037
101 | GAAGGGGGTT | 0.973 ± 0.036
102 | CATAATTGTA | 0.979 ± 0.019
103 | CTGGTGGGAG | 0.9857 ± 0.0067
104 | TTGCTTTTGT | 1.02 ± 0.025
105 | GTTTTGATGG | 1 ± 0.019
106 | TGGTGGAGCA | 0.986 ± 0.024
107 | ACGGGTGTCC | 0.995 ± 0.066
108 | TATTTTTGGT | 0.986 ± 0.021
109 | GAAGGATTGT | 1.02 ± 0.059
110 | TTAAGTTAGC | 1.06 ± 0.045
111 | AGGGCGCTAT | 1.05 ± 0.042
112 | GTTTATATAT | 1.03 ± 0.035
113 | CTTGGAAATA | 1.02 ± 0.013
114 | AAGAGGGGGG | 0.999 ± 0.053
115 | GGTCAATGTG | 0.987 ± 0.033

Row | Sequence | switch fluorescence ratio
116 | TTGGGTTTTG | 0.994 ± 0.031
117 | GCTCGGGGGA | 0.978 ± 0.022
118 | GTTCAAATGA | 0.987 ± 0.017
119 | AATGAACATG | 0.978 ± 0.037
120 | ATAGACGAGG | 0.9809 ± 0.0011
121 | GTGGGCAGGT | 0.988 ± 0.024
122 | GCAACAGCAA | 1.04 ± 0.015
123 | AAAAGGGGAA | 1.02 ± 0.025
124 | CAATAGCACG | 1.03 ± 0.027
125 | GTGATAGGGA | 1 ± 0.013
126 | CGTTAAACGT | 1.01 ± 0.036
127 | TACTGGGCAC | 3.22 ± 3
128 | ACTGGATGCT | 0.995 ± 0.12
129 | GGGGGTGTGA | 1.02 ± 0.017
130 | CGGGATGGCT | 0.996 ± 0.011
131 | TGGTTGTAAG | 1.03 ± 0.024
132 | TTATCGATAG | 0.985 ± 0.019
133 | GGGTGACGGG | 1.01 ± 0.074
134 | TACGTAATCT | 1.27 ± 0.014
135 | TTATCCAGCT | 1.01 ± 0.012
136 | GTTATTCGGT | 0.991 ± 0.023
137 | AGAGGGAGGA | 1.017 ± 0.0086
138 | AGGGGATTTG | 0.999 ± 0.03

Row | Sequence | switch fluorescence ratio
139 | AAAACGAGAT | 1.05 ± 0.039
140 | TTGTGGCGTG | 1 ± 0.034
141 | TTTTAGTTTA | 1.01 ± 0.031
142 | TGGTCCGGGA | 1.03 ± 0.029
143 | TTTGCAAAAA | 1.06 ± 0.082
144 | ACCCATAGCG | 1.017 ± 0.0062
145 | TTTCGGTTTG | 1.02 ± 0.047
146 | GCTGGATGGC | 0.993 ± 0.025
147 | AGGTGTTTGC | 1.05 ± 0.028
148 | CAGTTATGCC | 0.988 ± 0.077
149 | TGGTTTCCGT | 0.991 ± 0.027
150 | CAGGAGTCGT | 1 ± 0.038
151 | AAAATAGAGC | 1.05 ± 0.062
152 | CTGGTTTCGG | 0.993 ± 0.022
153 | TAAAAGCTGA | 0.989 ± 0.042
154 | GGGTGTGTGT | 1.02 ± 0.017
155 | TTTTGTTTGA | 0.995 ± 0.01
156 | ATGCATCGAG | 1.01 ± 0.03
157 | TTTGTTGGGC | 0.981 ± 0.028
